We go through twelve molecules from paper PMC8765073 (mAbs, 2022).

The labels stand for the following.
B1: D27LEY (antibody, V domains shown)
VH: QVQLQQSGAEVKKPGSSVKVSCKASGGTFGNWSISWVRQAPGQGLEWMGGIAPGRGEATYAQKFQGRVTITTDESTSTAYMELSSLRSEDTAVYYCARETWYTSGGMDVWGQGTTVTVSS
VL: SYELTQPPSVSVAPGKTARITCGGNNIGRKSVHWYQQKPGQAPVLVVYDDSDRPSGIPERFSGSNSGNTATLTISRVEAGDEADYYCQVYDLWSSDYVFGTGTKVEIK
B2: D27LE (antibody, V domains shown)
VH: B1 VH with A52D, G54S
VL: B1 VL
B3: Y4.2 (D27LEY), scFv (scFv, V domains shown)
VH: B1 VH
VL: B1 VL
B4: Y1.10 (scFv, V domains shown)
VH: B1 VH with S33T, A52G, G54R, R55Q
VL: B1 VL
B5: D27LE, scFv (scFv, V domains shown)
VH: B1 VH with A52D, G54S
VL: B1 VL
B6: Y4.1 (scFv, V domains shown)
VH: B1 VH with S33T, G54T
VL: B1 VL
B7: Y2.1 (scFv, V domains shown)
VH: B1 VH with A52V, G54R, R55D
VL: B1 VL
B8: Y9.7 (scFv, V domains shown)
VH: B1 VH with A52N, G54S, R55I
VL: B1 VL
B9: Y9.6 (scFv, V domains shown)
VH: B1 VH with S33T, A52I, G54T, R55I
VL: B1 VL
B10: Y8.10 (scFv, V domains shown)
VH: B1 VH with R55Q
VL: B1 VL
B11: Y7.10 (scFv, V domains shown)
VH: B1 VH with S33T, A52I, G54S
VL: B1 VL
B12: Y6.8 (scFv, V domains shown)
VH: B1 VH with S33T, G54D
VL: B1 VL

Changes are numbered by the printed parent chain. Some results are limits rather than exact numbers.

The target of the first experiment is T1, N501Y mutant RBD (SARS-CoV-2 Alpha (B.1.1.7), RBD N501Y, N501Y). As to the kind of experiment: BLI.
In turn, B1 had a Kd of less than 0.001 nM.

Consider B2, for which the Kd is 0.54 nM. The same measure, in the same setting: then B3, with 4.87 nM.

The target of the next experiment is RBD of the Delta variant (SARS-CoV-2, Delta (B.1.617.2), L452R | T478K). As to the kind of experiment: BLI. (BLI is a label-free optical method that tracks binding on a fibre tip over time.)
B1 had a Kd of 0.32 nM.

The next experiment concerns the target T1, N501Y mutant RBD. As to the kind of experiment: BLI. This is another data set of the same source.
Turning to B4, the dissociation constant (Kd) came to 842 nM. For B5, the Kd turned out to be 276 nM.

B6 came in with a dissociation constant (Kd) of 102 nM. For the molecule B7, binding was put at a Kd of 30.8 nM. Still for that read-out and setting: to B8 belongs 79.2 nM; to B9, 263 nM. For B3, the Kd is 9.4 nM. Turning to B10, the Kd came out at 21.3 nM. Turning to B11, binding was put at a Kd of 41.2 nM.

B12: binding was characterised by a dissociation constant (Kd) of 93.5 nM.

For orientation: Kd means the equilibrium constant for the complex coming apart.
